Assay results as given in patent US20120165503A1 (Merck Sharp & Dohme, published 2012).
*1 amine or outer side, *2 acyl side, *3 side chain or, on linkers, in order; H or OH if unused. Where no end group is shown, it is not given here. Side-chain parts run from the residue outwards. [ ]: non-standard residue; d: D form. The star is where a group is joined. d(γGlu) = O=C(O)[C@@H](CCC(=O)[*:2])N[*:1]; γGlu = O=C(O)[C@H](CCC(=O)[*:2])N[*:1]; Palmitoyl = CCCCCCCCCCCCCCCC(=O)*; Myristoyl = CCCCCCCCCCCCCC(=O)*; Aib = CC(C)(N)C(=O)O

B1: MM102 (peptide)
peptide: H[dS]QGTFTSDK([γGlu-γGlu-Palmitoyl])SKYLD[Aib]RRAQDFVQWLMNTE[γGlu]-NH2
modifications: N-terminus assumed
SMILES: CCCCCCCCCCCCCCCC(=O)N[C@@H](CCC(=O)N[C@@H](CCC(=O)NCCCC[C@H](NC(=O)[C@H](CC(=O)O)NC(=O)[C@H](CO)NC(=O)[C@@H](NC(=O)[C@H](Cc1ccccc1)NC(=O)[C@@H](NC(=O)CNC(=O)[C@H](CCC(N)=O)NC(=O)[C@@H](CO)NC(=O)[C@@H](N)Cc1c[nH]cn1)[C@@H](C)O)[C@@H](C)O)C(=O)N[C@@H](CO)C(=O)N[C@@H](CCCCN)C(=O)N[C@@H](Cc1ccc(O)cc1)C(=O)N[C@@H](CC(C)C)C(=O)N[C@@H](CC(=O)O)C(=O)NC(C)(C)C(=O)N[C@@H](CCCNC(=N)N)C(=O)N[C@@H](CCCNC(=N)N)C(=O)N[C@@H](C)C(=O)N[C@@H](CCC(N)=O)C(=O)N[C@@H](CC(=O)O)C(=O)N[C@@H](Cc1ccccc1)C(=O)N[C@H](C(=O)N[C@@H](CCC(N)=O)C(=O)N[C@@H](Cc1c[nH]c2ccccc12)C(=O)N[C@@H](CC(C)C)C(=O)N[C@@H](CCSC)C(=O)N[C@@H](CC(N)=O)C(=O)N[C@H](C(=O)N[C@@H](CCC(=O)O)C(=O)N[C@@H](CCC(N)=O)C(=O)O)[C@@H](C)O)C(C)C)C(=O)O)C(=O)O
B2: MM115 (peptide)
peptide: H[dS]QGTFTSDK([Arg-Arg-Palmitoyl])SKYLDERRAQDFVQWLMNTK[γGlu]-NH2
modifications: N-terminus assumed
SMILES: CCCCCCCCCCCCCCCC(=O)N[C@@H](CCCNC(=N)N)C(=O)N[C@@H](CCCNC(=N)N)C(=O)NCCCC[C@H](NC(=O)[C@H](CC(=O)O)NC(=O)[C@H](CO)NC(=O)[C@@H](NC(=O)[C@H](Cc1ccccc1)NC(=O)[C@@H](NC(=O)CNC(=O)[C@H](CCC(N)=O)NC(=O)[C@@H](CO)NC(=O)[C@@H](N)Cc1c[nH]cn1)[C@@H](C)O)[C@@H](C)O)C(=O)N[C@@H](CO)C(=O)N[C@@H](CCCCN)C(=O)N[C@@H](Cc1ccc(O)cc1)C(=O)N[C@@H](CC(C)C)C(=O)N[C@@H](CC(=O)O)C(=O)N[C@@H](CCC(=O)O)C(=O)N[C@@H](CCCNC(=N)N)C(=O)N[C@@H](CCCNC(=N)N)C(=O)N[C@@H](C)C(=O)N[C@@H](CCC(N)=O)C(=O)N[C@@H](CC(=O)O)C(=O)N[C@@H](Cc1ccccc1)C(=O)N[C@H](C(=O)N[C@@H](CCC(N)=O)C(=O)N[C@@H](Cc1c[nH]c2ccccc12)C(=O)N[C@@H](CC(C)C)C(=O)N[C@@H](CCSC)C(=O)N[C@@H](CC(N)=O)C(=O)N[C@H](C(=O)N[C@@H](CCCCN)C(=O)N[C@@H](CCC(N)=O)C(=O)O)[C@@H](C)O)C(C)C
B3: MM103 (peptide)
peptide: H[dS]QGTFTSDK([γGlu-γGlu-Palmitoyl])SKYLD[Aib]RRAQDFVQWLMNT[dK][γGlu]-NH2
modifications: N-terminus assumed
SMILES: CCCCCCCCCCCCCCCC(=O)N[C@@H](CCC(=O)N[C@@H](CCC(=O)NCCCC[C@H](NC(=O)[C@H](CC(=O)O)NC(=O)[C@H](CO)NC(=O)[C@@H](NC(=O)[C@H](Cc1ccccc1)NC(=O)[C@@H](NC(=O)CNC(=O)[C@H](CCC(N)=O)NC(=O)[C@@H](CO)NC(=O)[C@@H](N)Cc1c[nH]cn1)[C@@H](C)O)[C@@H](C)O)C(=O)N[C@@H](CO)C(=O)N[C@@H](CCCCN)C(=O)N[C@@H](Cc1ccc(O)cc1)C(=O)N[C@@H](CC(C)C)C(=O)N[C@@H](CC(=O)O)C(=O)NC(C)(C)C(=O)N[C@@H](CCCNC(=N)N)C(=O)N[C@@H](CCCNC(=N)N)C(=O)N[C@@H](C)C(=O)N[C@@H](CCC(N)=O)C(=O)N[C@@H](CC(=O)O)C(=O)N[C@@H](Cc1ccccc1)C(=O)N[C@H](C(=O)N[C@@H](CCC(N)=O)C(=O)N[C@@H](Cc1c[nH]c2ccccc12)C(=O)N[C@@H](CC(C)C)C(=O)N[C@@H](CCSC)C(=O)N[C@@H](CC(N)=O)C(=O)N[C@H](C(=O)N[C@H](CCCCN)C(=O)N[C@@H](CCC(N)=O)C(=O)O)[C@@H](C)O)C(C)C)C(=O)O)C(=O)O
B4: MM121 (peptide)
peptide: H[dS]QGTFTSDK([γGlu-γGlu-Myristoyl])SKYLD[Aib]RRAQDFVQWLMNTK[γGlu]-NH2
modifications: N-terminus assumed
SMILES: CCCCCCCCCCCCCC(=O)N[C@@H](CCC(=O)N[C@@H](CCC(=O)NCCCC[C@H](NC(=O)[C@H](CC(=O)O)NC(=O)[C@H](CO)NC(=O)[C@@H](NC(=O)[C@H](Cc1ccccc1)NC(=O)[C@@H](NC(=O)CNC(=O)[C@H](CCC(N)=O)NC(=O)[C@@H](CO)NC(=O)[C@@H](N)Cc1c[nH]cn1)[C@@H](C)O)[C@@H](C)O)C(=O)N[C@@H](CO)C(=O)N[C@@H](CCCCN)C(=O)N[C@@H](Cc1ccc(O)cc1)C(=O)N[C@@H](CC(C)C)C(=O)N[C@@H](CC(=O)O)C(=O)NC(C)(C)C(=O)N[C@@H](CCCNC(=N)N)C(=O)N[C@@H](CCCNC(=N)N)C(=O)N[C@@H](C)C(=O)N[C@@H](CCC(N)=O)C(=O)N[C@@H](CC(=O)O)C(=O)N[C@@H](Cc1ccccc1)C(=O)N[C@H](C(=O)N[C@@H](CCC(N)=O)C(=O)N[C@@H](Cc1c[nH]c2ccccc12)C(=O)N[C@@H](CC(C)C)C(=O)N[C@@H](CCSC)C(=O)N[C@@H](CC(N)=O)C(=O)N[C@H](C(=O)N[C@@H](CCCCN)C(=O)N[C@@H](CCC(N)=O)C(=O)O)[C@@H](C)O)C(C)C)C(=O)O)C(=O)O
B5: MM113 (peptide)
peptide: H[dS]QGTFTSDK([γGlu-γGlu-Palmitoyl])SKYLD[Aib]RRAQDFVQWLMNTE[d(γGlu)]-NH2
modifications: N-terminus assumed
SMILES: CCCCCCCCCCCCCCCC(=O)N[C@@H](CCC(=O)N[C@@H](CCC(=O)NCCCC[C@H](NC(=O)[C@H](CC(=O)O)NC(=O)[C@H](CO)NC(=O)[C@@H](NC(=O)[C@H](Cc1ccccc1)NC(=O)[C@@H](NC(=O)CNC(=O)[C@H](CCC(N)=O)NC(=O)[C@@H](CO)NC(=O)[C@@H](N)Cc1c[nH]cn1)[C@@H](C)O)[C@@H](C)O)C(=O)N[C@@H](CO)C(=O)N[C@@H](CCCCN)C(=O)N[C@@H](Cc1ccc(O)cc1)C(=O)N[C@@H](CC(C)C)C(=O)N[C@@H](CC(=O)O)C(=O)NC(C)(C)C(=O)N[C@@H](CCCNC(=N)N)C(=O)N[C@@H](CCCNC(=N)N)C(=O)N[C@@H](C)C(=O)N[C@@H](CCC(N)=O)C(=O)N[C@@H](CC(=O)O)C(=O)N[C@@H](Cc1ccccc1)C(=O)N[C@H](C(=O)N[C@@H](CCC(N)=O)C(=O)N[C@@H](Cc1c[nH]c2ccccc12)C(=O)N[C@@H](CC(C)C)C(=O)N[C@@H](CCSC)C(=O)N[C@@H](CC(N)=O)C(=O)N[C@H](C(=O)N[C@@H](CCC(=O)O)C(=O)N[C@H](CCC(N)=O)C(=O)O)[C@@H](C)O)C(C)C)C(=O)O)C(=O)O

What follows are binders tested against human GLP-1 receptor (human, UniProt P43220 24-463) (assay: cell-based or functional assay).

Row | Binder | hGLP-1R EC50
1 | H[dS]QGTFTSDK([dE-dE-Palmitoyl])SKYLDERRAQDFVQWLMNTK[γGlu]-NH2 [MM117] | 0.93 nM
2 | B1 | 0.034 nM
3 | B2 | 1.08 nM
4 | B3 | 0.026 nM
5 | B4 | 0.131 nM
6 | B5 | 0.023 nM
7 | H[dS]QGTFTSDK([homocysteic acid-homocysteic acid-Palmitoyl])SKYLDERRAQDFVQWLMNTK[γGlu]-NH2 [MM116] | 0.132 nM

Each binder was assayed against human glucagon receptor (human, UniProt P47871 26-477) (assay: cell-based or functional assay).
Sequence of human glucagon receptor (P47871 26-477): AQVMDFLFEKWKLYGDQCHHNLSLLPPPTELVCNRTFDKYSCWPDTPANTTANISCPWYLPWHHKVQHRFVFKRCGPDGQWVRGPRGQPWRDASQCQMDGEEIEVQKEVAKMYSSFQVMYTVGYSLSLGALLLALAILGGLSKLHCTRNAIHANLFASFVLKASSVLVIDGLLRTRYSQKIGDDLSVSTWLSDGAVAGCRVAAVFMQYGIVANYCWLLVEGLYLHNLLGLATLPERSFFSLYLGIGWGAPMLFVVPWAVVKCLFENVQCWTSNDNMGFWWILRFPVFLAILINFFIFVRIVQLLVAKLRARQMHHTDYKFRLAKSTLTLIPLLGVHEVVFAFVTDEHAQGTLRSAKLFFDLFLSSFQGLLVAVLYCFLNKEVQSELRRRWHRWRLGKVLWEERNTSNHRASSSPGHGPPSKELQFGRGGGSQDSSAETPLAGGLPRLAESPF

Row | Binder | hGCGR EC50
8 | H[dS]QGTFTSDK([dE-dE-Palmitoyl])SKYLDERRAQDFVQWLMNTK[γGlu]-NH2 [MM117] | 0.25 nM
9 | B1 | 0.003 nM
10 | B2 | 1.31 nM
11 | B3 | 0.005 nM
12 | B4 | 0.006 nM
13 | B5 | 0.006 nM
14 | H[dS]QGTFTSDK([homocysteic acid-homocysteic acid-Palmitoyl])SKYLDERRAQDFVQWLMNTK[γGlu]-NH2 [MM116] | 0.85 nM
